{
  "source": "patent US20250382384A1",
  "about": "(BEONE MEDICINES I, published 2025)",
  "key": {"[1]": {"biological_target": "T1, native human MUC1 on tumour cell lines (human, UniProt P15941 24-1255)", "T1 construct": "whole, on cells; also called native MUC1; ZR-75", "T1 sequence (P15941 24-1255)": "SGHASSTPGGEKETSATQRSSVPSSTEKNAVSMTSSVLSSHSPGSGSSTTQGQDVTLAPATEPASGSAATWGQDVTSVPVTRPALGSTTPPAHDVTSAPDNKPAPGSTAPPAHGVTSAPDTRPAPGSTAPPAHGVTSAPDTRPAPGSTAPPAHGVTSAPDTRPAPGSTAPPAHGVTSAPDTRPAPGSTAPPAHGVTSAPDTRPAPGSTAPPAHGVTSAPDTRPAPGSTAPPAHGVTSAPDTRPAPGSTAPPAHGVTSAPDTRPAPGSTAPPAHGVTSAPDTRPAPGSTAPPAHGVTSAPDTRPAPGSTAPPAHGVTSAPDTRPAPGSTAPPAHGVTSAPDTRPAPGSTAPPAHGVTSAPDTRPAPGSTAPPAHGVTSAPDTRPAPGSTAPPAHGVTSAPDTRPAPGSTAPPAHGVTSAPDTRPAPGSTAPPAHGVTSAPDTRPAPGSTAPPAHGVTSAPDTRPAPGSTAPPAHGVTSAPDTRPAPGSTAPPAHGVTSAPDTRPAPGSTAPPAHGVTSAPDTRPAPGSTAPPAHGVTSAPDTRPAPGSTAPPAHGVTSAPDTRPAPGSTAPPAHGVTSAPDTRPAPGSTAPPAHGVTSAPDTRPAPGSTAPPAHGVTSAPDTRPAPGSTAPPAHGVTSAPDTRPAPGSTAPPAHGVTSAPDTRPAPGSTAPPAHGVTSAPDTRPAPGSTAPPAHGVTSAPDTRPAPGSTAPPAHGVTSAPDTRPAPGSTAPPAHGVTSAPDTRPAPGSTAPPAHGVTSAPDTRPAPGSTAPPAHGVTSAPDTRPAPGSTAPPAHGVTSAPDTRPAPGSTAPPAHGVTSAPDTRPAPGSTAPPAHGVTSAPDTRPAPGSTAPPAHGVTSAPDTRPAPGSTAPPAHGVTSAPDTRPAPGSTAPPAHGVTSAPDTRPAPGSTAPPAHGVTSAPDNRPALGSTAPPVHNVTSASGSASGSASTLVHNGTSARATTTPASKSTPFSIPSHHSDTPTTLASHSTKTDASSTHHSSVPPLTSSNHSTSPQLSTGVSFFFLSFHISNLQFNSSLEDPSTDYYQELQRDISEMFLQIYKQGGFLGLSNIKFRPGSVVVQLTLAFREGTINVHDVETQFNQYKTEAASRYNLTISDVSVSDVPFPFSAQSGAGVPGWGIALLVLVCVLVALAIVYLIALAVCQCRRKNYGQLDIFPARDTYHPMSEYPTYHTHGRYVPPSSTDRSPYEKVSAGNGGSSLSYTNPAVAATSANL", "assay": "FACS on live ZR-75 cells"}, "[2]": {"biological_target": "T2, full-length human MUC1 on stably transfected cells (human, UniProt P15941 24-1255)", "T2 construct": "also called HEK293/human MUC1; HEK293-hMUC1", "T2 sequence (P15941 24-1255 limits assumed)": "as the sequence (P15941 24-1255) above", "assay": "FACS (iQue3) on HEK293-hMUC1 cells"}, "[3]": {"biological_target": "T2, full-length human MUC1 on stably …", "assay": "FACS on HEK293-MUC1 cells, anti-His detection"}, "MUC1-SEA-mIgG2a": {"biological_target": "T3, MUC1-SEA-mIgG2a (human; mouse, UniProt P15941 1036-1155)", "T3 construct": "also called huMUC1-SEA-mIgG2a; human MUC1-mFc; not shown: Fc domain of mouse IgG2a fused to the C-terminus of the SEA domain", "T3 sequence": "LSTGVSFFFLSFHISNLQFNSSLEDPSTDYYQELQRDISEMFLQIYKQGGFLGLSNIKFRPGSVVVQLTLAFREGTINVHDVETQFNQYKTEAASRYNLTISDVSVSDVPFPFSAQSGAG", "assay": "SPR (Biacore 8K, 25 C), MUC1-SEA-mIgG2a captured by anti-mouse Fc, scFv analyte"}},
  "data": [
    {"binder": "huBG219P-Bz0 (antibody, IgG1, V domains shown, human wild-type IgG1 / kappa) VH: EVQLLESGGGLVQPGGSLRLSCAASGFTFNDYIMSWVRQAPGKGLEWVATVSSGGDNTYYPDSVKGRFTISRDNSKNTLYLQMNSLRAEDTAVYYCTRYGGLGAMDYWGQGTLVTVSS VL: DIQMTQSPSSLSASVGERVTITCRASGNIHNYLTWYQQKPGKSPKLLVYNAKTLADGVPSRFSGSGSGPDYTLTISSLQPEDFATYYCQHFWSVPYTFGQGTKLEIK", "values": [
      {"measurement": "EC50", "setting": "[1]", "result": 20.9, "unit": "nM"}
    ]},
    {"binder": "huBG138P-Hz1 (antibody, V domains shown, humanized; constant regions not restated (IgG1/Ckappa vector used for the first round)) VH: QVQLVQSGAEVKKPGASVKVSCKASGYTFTTYTMHWVRQAPGQRLEWMGYINPGSDYTHYNQKFKDRVTITADTSASTAYMELSSLRSEDTAVYYCARQGNYAAYYFDYWGQGTLVTVSS VL: DIQMTQSPSSLSASVGDRVTITCRASGNIHNFLVWYQQKPGKVPKLLIYNAKTLTSGVPSRFSGSGSGTDYTLTISSLQPEDVATYYCQNFWNVPFTFGQGTKLEIK", "values": [
      {"measurement": "EC50 (read off the curve)", "setting": "[2]", "result": "~5", "unit": "nM"}
    ]},
    {"binder": "huBG138P-Hz4 (antibody, V domains shown, humanized; constant regions not restated) VH: QVQLVQSGAEVKKPGASVKVSCKASGYTFTTYTMHWVRQAPGQGLEWMGYINPGSDYTHYNQKFKDRVTITADKSASTAYMELSSLRSEDTAVYYCARQGNYAAYYFDYWGQGTLVTVSS VL: DIQMTQSPSSLSASVGDRVTITCRASGNIHNFLVWYQQKPGKSPKLLIYNAKTLTSGVPSRFSGSGSGTQYTLTISSLQPEDVATYYCQNFWNVPFTFGQGTKLEIK", "values": [
      {"measurement": "EC50 (read off the curve)", "setting": "[2]", "result": "~3", "unit": "nM"}
    ]},
    {"binder": "huBG138P-Hz3 (antibody, V domains shown, humanized; constant regions not restated) VH: QVQLVQSGAEVKKPGASVKVSCKASGYTFTTYTMHWVRQAPGQGLEWMGYINPGSDYTHYNQKFKDRVTITADKSASTAYMELSSLRSEDTAVYYCARQGNYAAYYFDYWGQGTLVTVSS VL: DIQMTQSPSSLSASVGDRVTITCRASGNIHNFLVWYQQKPGKVPKLLIYNAKTLTSGVPSRFSGSGSGTDYTLTISSLQPEDVATYYCQNFWNVPFTFGQGTKLEIK", "values": [
      {"measurement": "EC50 (read off the curve)", "setting": "[2]", "result": "~5", "unit": "nM"}
    ]},
    {"binder": "scFv3-20P (scFv, Humanized BG346P scFv; His tag from the stated format of the BG346P scFv constructs; also called BG346P-scFv3-20P) scFv: QVQLVQSGAEVKKPGASVKVSCKASGYTFTNYWINWVRQAPGQGLEWMGEIDPSDAYTNNNQKFQGRVTMTVDTSTSTAYMELSSLRSEDTAVYYCARGRRTGFAYWGQGTLVTVSSGGGGSGGGGSGGGGSGGGGSDIQMTQSPSSLSASVGDRVTITCRASENIYSNLAWYQQKPGKAPKLLIYAATNLADGVPSRFSGSGSGTDYTLTISSLQPEDFATYYCQHFWGTPYTFGQGTKLEIKHHHHHH", "values": [
      {"measurement": "EC50", "setting": "[3]", "result": 16.1, "unit": "nM"},
      {"measurement": "Kd", "setting": "MUC1-SEA-mIgG2a", "result": 67.1, "unit": "nM"},
      {"measurement": "koff", "setting": "MUC1-SEA-mIgG2a", "result": 0.0202, "unit": "s⁻¹"},
      {"measurement": "kon", "setting": "MUC1-SEA-mIgG2a", "result": 301000, "unit": "M⁻¹ s⁻¹"}
    ]}
  ]
}
